Test results taken from the nanobody polyreactivity screen of Harvey et al. (2022).

Assay: yeast display, Sf9 membrane polyspecificity reagent, FACS + sequencing; frameworks hold sequencing errors
Method in brief: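 Galactose induction of a Saccharomyces cerevisiae BJ5465 synthetic nanobody display library ran 36–48 hours. The cells were then stained for 1 hour at 4 °C with 10% biotinylated, detergent-solubilized Sf9 membrane reagent, pulled down on streptavidin microbeads and FACS-sorted into low and high (top ~1%) gates on expression and reagent-binding fluorescence. Labels for polyreactivity follow the gate of origin.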

Sequence	polyreactivity (PSR sort gate)
QVQLVESGGGLVQAGGSLRLSCAASGRTFVSYDMGWYRQAPGKERELVATISWTAGSTYYADSVKGRFTISRDNAKNTVYLQMNSLKPEDTAVYYCAADVFYSIYDYWGQGTQVTVSS	low polyreactivity
QVQLVESGGGLVQAGGSLRLSCAASGLIFKKYTMGWYRQAPGKERELVASISKSGGSTYYADSVKGRFTISRDNAKNTVYLLMNSLKPDDTAVYYCAVGSTDRVSAQGSYFTYDYWGQGTQVNVSS	low polyreactivity
QVQLVESGGGLVQAGGSLRLSCAASGRTFRRYVMGWYRQAPGKERELVASITRGTGTDYADSVKGRFTISRDNAKNTVYLQMNSLKPEDTAVYYCNAEVKGFFYDYDYWGQGTQVTVSS	low polyreactivity
QDQLVESGGGLVQAGGSLRLSCAASGRIFGYYVMGWYRQAPGKERELVAAISGSGGSTYYADSVKGRFTISRDNAKNTVYLQMNSLKPEDTAVYYCNKRATRSRRRGYWGQGTQVTVSS	low polyreactivity
QVQLVESGGGLVQAGGSLRLSCAASGSTFEFYAMGWYRQAPGKERELVAAIWRGGSTHYADSVKGRFTISRDNAKNTVYLQMNSLKPEDTAVYYCAASPYIFWRFEYWGQGTQVTVSS	low polyreactivity
QVQLEESGGGLVQAGGSLRLSCAASGRTFGWNGMGWYRQAPGKERELVAVISSGGSTKYADSVKGRFTISRDNAKNTVYLQMNSLKPEDTALYYCAKDWVRSGRRNMDYWGQGTQVTFSS	low polyreactivity
QVQLVESGGGLVQAGGSLRLSCAASGFTFAGNARGWDRQSPGKERELVAAITSGGSTYYADSVKGRFTMSRDKAKNTVYLQMNSLKPEDTAVYYCAALVFRGRSFTHDYWGQGTQVTVSS	high polyreactivity
QVQLVESGGGLVQAGGSLRLSCAASGFIFDKYSMGWYRQAPGKERELVAAITDTGGNTYYADSVKGRFTISRDNAKNTVYLQMNILKPEDTAVYYSNADYTDYQTYSATTYEYWGQGTQVTVSS	low polyreactivity
QVQLVESGGGLVQAGGSLRLSCAASGRIFPGYTMGWYRQAPGKEREFVAAISYSGGSTYADSVKGRFTISRDNAKNTVYLQMNSLKPEDTAVNYCAVVLQHWLDMYYWGQGTQVTVSS	low polyreactivity
QVQLVESGGGVVQAGGSLRLSCAASGSIFNGYAMGWYRQAPGNEWELVAAISGNGGRTYYADSVKGRFTFSRDYAKNTVYLQMNSLKPEETADYYCNKVSGYYVDYWGQGSQVTVSS	high polyreactivity
PDQLVESGGGLVQAGGSLRLSCAASGLNFYDNMGWYIQATGKERELVSAISSSGGSTSYADSVKGRFTISRDNAKNTVYLQMNSLKPEDTAVYYCAADSSPAYLGFVGFDYWGHGTQVTVSS	low polyreactivity
QVQLVDTGGGLVQAGGSLRLSCAASGLTIYGNAMGWSRQAPGKERELVAAISSSGGTTYYADSVKGRFTISRDNSKNTVYLQMNSLKPEDTAVYYCAARPSGGYESTRTRDYWGQGTQVTLSS	low polyreactivity
QVQLVESGGGLVQAGGSLRLSCAASGRTQYKYAMGWYRQAPGKERELVATISSGGRTKYADSVKGRFTISRDNAKNTVDLQMNSLKPEDTAVYYCAAQNRPRYYSGDYWGQGTQVTVSS	low polyreactivity
QVQLVESAGGLVQAGGSLRLSCAASGSIFGSYAMGGYRQAPGKERELVAAIYSSGGSTYYADSVKGRFTISRDNAKNTVYLQMNSLKPEDTAVYYCNKYVRYGDGYWGQGTQVTVSS	high polyreactivity
QVQLVESGGGLVQAGGSLRLICAASGLTFLYYTMVWYRQEPGNERELVAAITSGASTNYADSVKGRFTISRDNAKNTVYLQMNSLIPEDTAVYYCAARYVGPFAWYSGYDYWGQGTQVTVSS	low polyreactivity
QVQLVESGGGLVQAGGSLRLSCAASGRIFWVNAMGWYRQAPGKERELVARIRGRSGSTYYADSVKGRFTISRDNAKNTVYLQMHSLKPEDTAVYYCNADFNRKVAGTPEVDYWGQGTQVTVSS	high polyreactivity

Sequence	polyreactivity (PSR sort gate)
QVQLVESGGGLVQAGGSLRLSCAASGTFAGNAMGWYRQAPGKERELVAAINSGGSTNYADSVKGRFTISRDNAKNTVYLQMKSLKPEDTAVYYCAADSVWSPVDYDYWGQGTQVTVSS	low polyreactivity
QVQLVESGGGLVQAGGSLRLSCAASGFTFPLYAMGWYRQAPGKERELVAVISRSGGSTYYADSVKGRFTISRDNAKNTVYLQMNSLKPEDTAVYYCAARLVPRSPERGNYDYWGQGTQVTVSS	high polyreactivity
QVQHVESGGGLVQAGRSLRLICAASGSIFDGNAMGWYRQAPGKERELVAAINWPGTRTYYADSVKGRFTISRDNAKNTVYLQMNSLKPEETAVYNCNKKWYPYLEHDYWGLGTQVTVSS	high polyreactivity
QVQLQESGGGLVQAGGSLLSCAASGTISWVDEMGWYLQAPGNERELVAGIAGGGNTNYADSVKGRFTISRDNAKNTVYLQMNSLDTAVYYCAVVGFGRGTHIYWGQGTQVTVSS	high polyreactivity
LVQLQESGGGLVQAGGSLRLSCAASGTISPGGNMGWYRQAPGKERELLASINVGGSTNYADSVKGRFTISRDNAINTVFLQMNSLKPDDNAVFYCAVWGRNRLQLSYWGQGTQVTVSS	low polyreactivity
QVQLVESGGGLVQAGGSLRLSCAASGSTFVIYDMGWYRQAPGKERELVAAISYSGGSTYYADSVKGRFTISRDNAKNTVYLQMNSLKPEDTAVYYCNAGVLVLLYAYLPSEQEYWGQGTQVTVSS	low polyreactivity
QVQLVESGGGLVQAGGSLRLSCAASGSTLRAYAMGWYRQAPGKERELVAAITRRGGSTSYADSVKGRFTISRDNAKNTVYLQMNSLKPEDTAVYYCARVVVTRHPKSIEYDYWGQGTQVTVSS	high polyreactivity
QVQLVESGGGLVQAGGSLRLSCAASVRIFSINAMGWYRQAPGKERELVAAINSGGSTHYADSVKGRFTISRDNAKNTVYLQMNSLKPEDTAGYYCAARKTVSYFRVRTFDYWGQGTQVTVSS	low polyreactivity
QVQLVESGGGLVQAGGSLRLTCADSGFIFYRYAMVWYRQAPGKERELVAAISTRGGSTFYADSVKGRFTISRDNAKNTVYLQMNSLKPEDTAVYYCATGPLRAYDYWGQGTQVTVSS	high polyreactivity
QVQLVESGGGLLQAGGSLRLSCAASGRTFETNAMGWNRQAPGKQRELVASINWSGGSTYYADSVKGRFTISRDNAKNSVYLQMNSLKPEDTAVYYCAADHSYWDWWSYYYWGQGTQVTVSW	low polyreactivity
QVQLVESGGGLVQAGGSLRLSCAASGGTFYGYAMGWYRQAPGKERELVAAISYNGGNTYYADSVKGRFTISRDNAKNTVYLQMNSLKAEDTAVYYCAAGYSYRYGYWGQGTQLTVSS	low polyreactivity
QVQLVESGGGLVQAGGSLRLSCAASGSTLTRNAMGLYRQAPGTERELVATITATGGSTYYADSVKGRFTISRDNAKYTVYLQMNSLKTEDTAVYYCAAAYPTYRHYYWGQGTQVTVSS	low polyreactivity
QVQLVESGGGLVQAGGSLRLSCAASGRMFYYYVMGWYRQAPGKESELVAVIDWSGGSTYYADSLKGRFTISRDTAKNTVYLQMNSLKPEDTAVYYCARVPYGNPNGNTPYGDNRYNSWGQGTQVTVSS	low polyreactivity
QVQLVESGGRLVQAGGSLRLSCAASGRIFGYYAMGRYRQAPGKERQLVAAITSGGSTYYADSVKGRFTISRDNATNTVYLQMHSLKPEDTADYYCNARYWGRTKVYYWGQGTQVTVSS	high polyreactivity
QVQLVESGGGLVQAGGSLRLSCAASGRTFTYYAMGWYRQAPGKERELVAAIRYTGGSTHYADSVKGRFTISRDNAKNTVYLQMNSLKPEDKAVYYCAARRAYTRGGTVYFGYYYWGQGTQVTVSS	high polyreactivity
QVQLVESGGGLVQAGGSLRLSCAASGSIFFWYTMGWYRQAPGKERELVATITGSGSSTTYADSVKGRFTISRDNAKNTVYFQMNSLKPEDTAVYYCAAADIIDHSFPYDYWGQGTQVTVSS	low polyreactivity
